In patent publication US20170152293:

System: T1, KZ-sarcin recombinant protein
T1 sequence: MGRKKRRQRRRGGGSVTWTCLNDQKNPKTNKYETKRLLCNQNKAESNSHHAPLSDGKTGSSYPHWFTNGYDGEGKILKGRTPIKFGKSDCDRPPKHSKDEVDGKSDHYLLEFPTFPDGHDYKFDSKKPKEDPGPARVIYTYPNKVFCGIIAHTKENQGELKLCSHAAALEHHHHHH

caspase-3 (Sigma Chem. Co, U.S.A.)
hydrolysis of KZ-sarcin by caspase-3, SDS-PAGE (room temperature, 15 minutes): KZ-sarcin recombinant protein was hydrolyzed by caspase-3 into two fragments of 12 kb and 8.5 kb
